A short description of the data set: soluble on expression in E. coli; label from the status in PepcDB or PDB records.
For the sequence “MSLKNIEKELENLRTIFRSIGLIKFKPYFSYMGLFKDDTMFGLYKEKCLYLRKSDQYLQEIKDTIPIHFLSDHKISRQSKIFYLVPQHIIENISSYSHWITSSISEYQRLRSKIRTENQTKIRILLNMNINIERLLARVNINTVDEFKQVGETKAFVRLIQQGFEVNQLLLFKLYGALQHKYIYMLSLEEKKRLLEQADSALYDAGLRKRFTVEGHHHHHH”, the “soluble on expression in E. coli” value was “soluble”. “MSLKNQWNNILSIGEKVLNGEKITADEALTLSKSNGSDIFLLCSFANKLREKFNGNHVDLCSVINAKSGNCSEDCAFCAQSAHHKANVSCYPLLNEDKILEMAKQREAYGARHCDIATSGLGYTGDEKDFQTILKAFKKMKENTNLKLCACLGTLTEKAMNSLAAVGVERYNHNLETAKSFYKNIVSTHGYDERIKTINYAKNAKMEVCSGMIVGLGETMEQRIEHALLLRDLNVDAVPVNILNPVKGTKLENAKPLSPMEIIKTFAIIRFILPDKIIRYAGGREKNLRSLQPLGFLSGLNGMLIGNYLTTNGQSVNDDFNMLKDLELEYEGHHHHHH”: the “soluble on expression in E. coli” value is recorded as “soluble”. With “MSLKPASVIIMDEHPIVRMSIEVLLGKNSNIQVVLKTDDSRTAIEYLRTYPVDLVILDIELPGTDGFTLLKRIKSIQEHTRILFLSSKSEAFYAGRAIRAGANGFVSKRKDLNDIYNAVKMILSGYSFFPSETLNFISNTRTPKGGHHDMPLSNREVTVLRYLANGMSNKEIAEQLLLSNKTISAHKANIFSKLGLHSIVELIDYAKSHELLEGHHHHHH”, the “soluble on expression in E. coli” value is “soluble”. Then “MSLKPLSSPLQQYWQTVVERLPEPLAEESLSAQAKSVLTFSDFVQDSVIAHPEWLTELESQPPQADEWQHYAAWLQEALCNVSDEAGLMRELRLFRRRIMVRIAWAQTLALVTEESILQQLSYLAETLIVAARDWLYDACCREWGTPCNAQGEAQPLLILGMGKLGGGELNFSSDIDLIFAWPEHGCTQGGRRELDNAQFFTRMGQRLIKVLDQPTQDGFVYRVDMRLRPFGESGPLVLSFAALEDYYQEQGRDWERYAMVKARIMGDSEGVYANELRAMLRPFVFRRYIDFSVIQSLRNMKGMIAREVRRRGLTDNIKLGAGGIREIEFIVQVFQLIRGGREPSLQSRSLLPTLSAIAELHLLSENDAEQLRVAYLFLRRLENLLQSINDEQTQTLPSDELNRARLAWAMDFADWPQLTGALTAHMTNVRRVFNELIGDDESETQEESLSEQWRELWQDALQEDDTTPVLAHLSEDDRKQVLTLIADFRKELDKRTIGPRGRQVLDHLMPHLLSDVCAREDAAVLSRITALLVGIVTRTTYLELLSEFPAALKHLISLCAASPMIASQLARYPLLLDELLDPNTLYQPTATDAYRDELRQYLLRVPEDDEEQQLEALRQFKQAPVLRIAAADIAGTLPVMKVSDHLTWLAEAMIDAVVQQAWVQMVARYGKPNHLNEREGRGFAVVGYGKLGGWELGYSSDLDLIFLHDCPMDAMTDGEREIDGRQFYLRLAQRIMHLFSTRTSSGILYEVDARLRPSGAAGMLVTSAEAFADYQKNEAWTWEHQALVRARVVYGDPQLTAHFDAVRREIMTLPREGKTLQTEVREMREKMRAHLGNKHRDRFDIKADEGGITDIEFITQYLVLRYAHEKPKLTRWSDNVRILELLAQNDIMEEQEAMALTRAYTTLRDELHHLALQELPGHVSEDCFTAERELVRASWQKWLVEEEGHHHHHH”, with “soluble”; and “MSLKQAMGYLRQSTTKQQSLAAQKQTIKVLAEKHNIQHITFYSDKQSGRTDKRNGYQQITELIQQGQCDVLCCYRLNRLHRNLKNALKLMKLCQTYHVHILSVRDGYFDMNKAFDRLKLNIFISLAELESDNIGEQVKNGLREKAKQGKLITTHAPFGYHYHNGTFTIDTVKSPTVKAVFNYYLQGYGYKKIAQYLEADNKFINRKPYQVRNIILNPNEGHHHHHH”, with “not soluble”. Regarding “MSLKQPAVFFDKNVSTIEENNSLLDGQTDVPVLDPHDLLVEVQAVSVNPVDTKLRQTGVASKIKILGYDAFGIVKNTGKDVTRFHAGDRVYYAGTTQRPGSNEKFQAVDERLVGRAPEKLNKSEIAAMPLTSITAYEILVDQLGLRFQNHAADGKNMLVINGAGGVGSVLLQMAAYLGINLSVTAHSSESIEWLKKYSVDKIYDYENIDETLADQKFDYIVFLYDPALYWDIAIKHIKPYGQLVSIVGTNKPLNMGPLKNIAVQFKWEYMFAKSDFNHNILSQGQALDKIAILLDAGILKTTLNKTFDLINAENLRQAYKLVESGRMQGKVVLNGPFDKALKEGHHHHHH”, the “soluble on expression in E. coli” value is reported as “soluble”. Consider “MSLKRADLSIVPLTFKHPIVTAHAVLSVRRTLILRLETVDGVVGYGEGAAFETPWYTEETTQSMIDTSKLILNLLKGMTVTTDVFPNLVSSIIGQRMAKAMWESALWEIEATRANKSLKSFISAGDSVSCGRTIGIGLLNQTMKSIETALADGFERIKLKASPNELLPALREIRAVFPDAPLMIDLNGSASDQPMEWFEQLDTYRLLMIEQPYPSRQFTKSAALQAKLTTPICLDESITSYDDVETMAQLGAGKIVNIKPARVGGLSEAFHIRKHGTPYWVGGMYESGIGRYHTLLFASLSGASFPADMSGTSAYFEQDLLDIPLEVENGKLTLPDSVQPDWNVIERLREEVITLQTEGHHHHHH”, for which the “soluble on expression in E. coli” value is on record as “soluble”.

Take “MSLKRIRPLDPDVVNKIAAGEIIVAPMHALKELIENAVDAGSTSIEVLVKDGGMKLLQITDNGHGIDRDDLPILCERFTTSKLKQFEDLSSIGTYGFRGEALASISHIAHLTVTTKTAGSSCAWRAHYSDGKLVPPKPGQSAEPKATAGRGGTQITVEDLFYNVPTRRRAFRSASEEYAKILDVVGRYAVHCSGVAFSCRKHGESGAGISTPAAANTTDRIRQIHGSAVANELVEFQVEDSKLGFRSSGLVTNANYHVKRTVIMLFINHRSVESTAIKRAVEQTYSSFLPKGGHPFVYIDLEIEPHRVDVNVHPTKREVNFLNEDDIIESICSEIRSKLAQEGHHHHHH”: the “soluble on expression in E. coli” value is recorded as “soluble”.

For “MSLKSAKELLFLALGGSGEIGMNVNLYCCDGKWLMVDLGMTFADPYYPGIDLVFADLEFIEERLDDLVGIVLTHAHEDHIGAVPYFAQDLGVPLYATPFTAKLVHEKLLEAGIEKEVELNVIDHLDPFQLGPFGLRYIPLAHSIAEGNALLIDTPHGRIFHTGDWKLDDEPRIGTPATEEELTAIGDEGVLALVCDSTNVFNPNPSGSEGAVRAGLLEAVAAQKGRRVVVTTFASNVARLQTLGEVAEATGRRVCVAGRSLDRIIRVAQSCGYLKNFPETVHMDDAMDLPRGELLVLATGGQGEPRAALARIAADQHPVKLEKGDAVLFSTRQIPGNELAIGRVQNALVEKGVRIVTDRQSMIHVSGHPGRPELMALYEWLRPEILVPVHGEIRHMAEQAQLGLDEGIPKAIVQKNGDLIRLAPNGPKKLSEEGHHHHHH”, the “soluble on expression in E. coli” value is given as “soluble”.

As to “MSLKSDNDVVITGVGIVTCHGVGSQAHVALLSGAAVPEPVVETEKFKPYPVHPMPEIDWSAQIAKRGDQRQMENWQRLGVFAAGLALDDAGLKENTEACATMDMIVAAGGGERDINVDTLIVDEALKRNDREKLLNEKLTTELRPTLFLAQLSNLMAGNISIVHKVTGSSRTFMGEEAAGISAVETAFHRIRSGESSHALVGGAFSAERPDMILLFEAIGAHAQGGWQPLWSRGDQDGGGMISGSLGAFLVLESRKHASERGARIYARIDAIEGDRGSRDDGKMEKRMERLLAPAKDSAATVVFSGASGYDEVTVREKDILEKVLPNSVIRGFGGVTGHGLEAQFPLGLALAALTLESGAKVPTFDAAAEKPMGEAATEAVVTTVGHVRGEGVAVLSRDVEGHHHHHH”, the “soluble on expression in E. coli” value was “soluble”. Then “MSLKSFFIGNIEIKVPVIQGGMGVGISLSGLASAVANEGGVGVISCAGLGLLYPKEKGTYTEKCISGLKEEIRKSRMKTKGIIGVNVMVALSNYADMVRTAINEKIDVIFSGAGLPLDLPSYLTTGSITKLVPIVSSSRAAKIICDKWQKNYNYLPDAIVVEGPKAGGHLGFKKEQLQDQNYALDVLIPEVVAIAASYKEQKHIPVIAAGGISTGEDIAHFMELGASGVQMGSIFVTTLECDASETFKEVYIHSKSEDVLIIESPVGMPGRAIDGEFIHSVNNGLEKPRKCSFHCIKTCDYTKSPYCIIKALYNAAKGNMKKGYAFAGSNAFLADKISSVKEVMNTLEREFFLATHKLVEGHHHHHH”, with “not soluble”. The entry for “MSLKSISLLLLSLLMITPSCQKPKEVTNEYNIVPQPNQLVPKEGRFELSNKVRLVVPSDAPEVKKVADGFAEQLKQTAGISLTEAESVDGKPAISFVLQEGMPKEGYKLSVTPTLITVTASQPNGFFYGVQTIYQLLPPAVYGKELKKKADWSVPAVEIEDAPRFVHRGLMLDVCRHYAPIEYIYKFIDLLAMNKMNVFHWHLTDDQGWRIEIKKYPKLTEIGSKREKTLVDYYYVNYPQVFDGIEHGGYYTQEQIKEVVAYAASKYINVIPEIEMPGHALAALAAYPELSCDSTQTYKVSPTWGVFEQVFCPSETTFKFFEGVMDEVVELFPSEYIHIGGDECPKTAWKNSTFCQQLIRQLGLKDDATPSKVDGVKHSKEDKLQSYFVTRMEKYLNGKGRNIIGWDEILEGGLAPNATVLSWRGVEGGLNAAKAGHNAIMAPMPYAYLDFYQEDPEIAPTTIGGYTTLKKTYSYNPVPDNADELVKKHIIGMQGNLWREYMKTSDRVDYQAFPRAMAIAETGWTLDANKNWKSFCERMVTEFERLEVMDTKPCLNFFDVNINTHADENGPLMVLLETFYPNAEIRYTTDGSEPTYGSTLYEQPFVLEGNIDLKAAAFKDGKMLGKVTNKPLYGNLLAGKEGHHHHHH” is “soluble”; for “MSLKTFLVCALEPSANLHLKEVLKAYKKDFGEFELHGIYDESLCKEFDLNSKPLYSSHEFSAMGFIEVLPLIFKAKKAIKELANLSFTQKINGILCIDSPAFNIPFAKALKKAGSKIPRIYYILPQVWAWKKGRIPIIESHFDILASILPFDNQFFNKSTYIGHPLLDEIKEFKNQEDINHTFSKKDDEKTIAFLPGSRRSEIRRLMPIFKELSQKFKGKKILCVPSFNLEKLEVYGDISEFKIESNTPKVLKKADFAFICSGTATLEAALVGTPFVLAYKAKAIDIFIAKLFVKLKHIGLANIFCDFAGKEALNPEFLQDKVNVLNLYEAYNKYDYKAFFAKVDFLKEYLQFGSAKNLAKILNEIEGHHHHHH” it is “soluble”. For “MSLKTGRSNIIAFIVPDQNPFFTEVLTEISHECQKHHLHVAVASSEENEDKQQDLIETFVSQNVSAIILVPVKSKFQMKREWLKIPIMTLDRELESTSLPSITVDNEEAAYIATKRVLESTCKEVGLLLANPNISTTIGRKNGYNKAISEFDLNVNPSLIHYSDQQLGTNAQIYSGYEATKTLLSKGIKGIVATNHLLLLGALQAIKESEKEIKKDVIIVGFDDSYWNEIYTPKLTVISQPVKEMGQVAAKMIYKLIKGKDVTSIKLSTKLIIRESCSFNEGHHHHHH”, the “soluble on expression in E. coli” value is “soluble”. Regarding “MSLKTIITNLKVYILKGPKEKRPHWVSNFIVPNANELLVILETNQGVEGFGLATSYTDMSPIVHVIESGISEKILGCNPLEPEMLYQSLFNLTASRLAYEKGWSREALIRVSAAVDIACWDIIGKISGLPLYQLFGGFRNKVPCYVTCAYYREGKDHAELKDEIQMLVDQGHQGFKAKVGGLSLAEDLERMELVREIIGPERDLMIDVNRAWDLKTAIEGARLLEPLKPTWLEEPVRWMDDRRELKILAQHTSIPLSGGESESTSYGCRTMIDEKAIQILQFDCTMFGGFTEGRKMTALCDLNHVDVAPHHDCFIHAPLVASSPAGRIVESFTDPERDPLQAELFENPPNIEKGWLTLNEAQGLGLTLSENALAKFGTQIIEGHHHHHH”, the “soluble on expression in E. coli” value is “soluble”. Regarding “MSLKTSRLPIAIQQAVMRRLREKLAQANLKLGRNYPEPKLSYTQRGTSAGTAWLESYEIRLNPVLLLENSEAFIEEVVPHELAHLLVWKHFGRVAPHGKEWKWMMESVLGVPARRTHQFELQSVRRNTFPYRCKCQEHQLTVRRHNRVVRGEAVYRCVHCGEQLVAKEGHHHHHH”, the “soluble on expression in E. coli” value is recorded as “not soluble”.
